Ends that are not written are not given here.
Legend:
[1] = Confocal imaging of kidneys 30 minutes after administration; type: in vivo, mice; settings: 10 nmol
Excerpt: Kidneys were isolated, sectioned, and imaged using a Zeiss confocal microscopy.

[2] = Competitive renal uptake studies, fluorescence imaging of whole organs; type: in vivo, mice; settings: 10 nmol iv, 4 hours, p-value of 0.015
Protocol: This example describes competitive uptake studies of peptides of this disclosure in kidneys. Peptides of this disclosure were compared to known kidney homers (“competitors”) to assess the efficiency and strength of kidney targeting. Three competitors were tested against a peptide of SEQ ID NO: 4, and kidney uptake was quantified by fluorescence imaging of whole organs on a Spectrum IVIS imager.
Kidneys from uninjected mice were used as a negative control. Fluorescence signal in each group was quantified to determine the average radiant efficiency in the kidneys from three mice per cohort. Data are shown as mean and error bars indicate standard deviation. A p-value of 0.0081 was calculated by a T-test, and the error bars indicate standard deviation. In this experiment, the unlabeled SEQ ID NO: 4 peptide competed with the SEQ ID NO: 4-AF647 as shown by decreased fluorescence and thus, decreased accumulation of the dye labeled peptide in the kidney. […] Fluorescence signal in each group was quantified to determine the average radiant efficiency in the kidneys from three mice per cohort. Data are shown as mean and error bars indicate standard deviation. Kidney uptake of a peptide of SEQ ID NO: 4-AF647 was not dampened by SEQ ID NO: 121 peptide even at the highest ratio of competitor. […] Fluorescence signal in each group was quantified to determine the average radiant efficiency in the kidneys from three mice per cohort. Data are shown as mean and error bars indicate standard deviation. A p-value of 0.015 was calculated by a Student's unpaired t-test.

SEQ ID NO: 4-AF647: SEQ ID NO: 4 conjugated to AF647 (GSSCEPGRTFRDRCNTCRCGADGRSAACTLRACPNQ; not fully specified; cysteine pairing not given here)
accumulation of dye in the kidney proximal tubules (FIG. 13) [1]: can deliver and accumulate dye when attached as a conjugate in the kidney proximal tubules
renal uptake compared with control peptide-AF647 (FIG. 12) [2]: significantly higher extent than the control peptide

Reference: patent publication US20200330603A1, “PEPTIDES FOR RENAL THERAPY” (FRED HUTCHINSON CANCER RESEARCH CENTER, priority 2015, published 2020)
